{
  "source": "patent US20220064291A1",
  "about": "“METHODS OF USING BUTYROPHILIN ANTIBODIES FOR TREATING HIV INFECTION” (Merck Sharp & Dohme Corp., priority 2018, published 2022)",
  "molecules": {"B1": {"name": "1G (antibody, V domains shown)", "VH": "QVQLVQSGAEVKKPGASVKVSCKASGYTFTSYGISWVRQAPGQGLEWMGWISAYNGNTNYAQKLQGRVTMTTDTSTSTAYMELRSLRSDDTAVYYCARLGATVAYFDLWGRGTLVTVSS", "VL": "EIVLTQSPATLSVSPGERATLSCRASQSVSSNLAWYQQKPGQAPRLLIYGASTRATGIPARFSGSGSGTEFTLTISSLQSEDFAVYYCQQDVYWPFTFGGGTKVEIK"}, "B2": {"name": "3B (antibody, V domains shown)", "VH": "QVQLVQSGAEVKKPGASVKVSCKASGYTFTSYYMHWVRQAPGQGLEWMGIINPSGGSTSYAQKFQGRVTMTRDTSTSTVYMELSSLRSEDTAVYYCARPSGDYSGYDALDVWGQGTMVTVSS", "VL": "B1 VL with V13L, N32Y, G50D, T53N, E70D, Q79E, S80P, V92P, F96I"}, "B3": {"name": "2A (antibody, V domains shown)", "VH": "QVQLVQSGAEVKKPGASVKVSCKASGYTFTSYYIHWVRQAPGQGLEWMGIINPSGGSTSYAQKFQGRVTMTRDTSTSTVYMELSSLRSEDTAVYYCARATWEALHYWGQGTLVTVSS", "VL": "B1 VL with L4M, S30G, D91Y, V92Y, Y93A, F96R"}, "B4": {"name": "3A (antibody, V domains shown)", "VH": "QVQLVQSGAEVKKPGASVKVSCKASGYTFTSYYMHWVRQAPGQGLEWMGIINPGGGSTSYAQKFQGRVTMTRDTSTSTVYMELSSLRSEDTAVYYCARDAGHDYGDMAYWGQGTLVTVSS", "VL": "DIQMTQSPSTLSASVGDRVTITCRASQSISSWLAWYQQKPGKAPKLLIYKASSLESGVPSRFSGSGSGTEFTLTISSLQPDDFATYYCQQYRSFPTFGGGTKVEIK"}},
  "key": {"BTN3A1": {"target": "T1, BTN3A1 (Homo sapiens, UniProt O00481)", "T1 construct": "Fc (Fc-chimera); purchased R&D systems; host or cells: HEK293", "T1 sequence (O00481 with tags, fused parts or gaps limits assumed)": "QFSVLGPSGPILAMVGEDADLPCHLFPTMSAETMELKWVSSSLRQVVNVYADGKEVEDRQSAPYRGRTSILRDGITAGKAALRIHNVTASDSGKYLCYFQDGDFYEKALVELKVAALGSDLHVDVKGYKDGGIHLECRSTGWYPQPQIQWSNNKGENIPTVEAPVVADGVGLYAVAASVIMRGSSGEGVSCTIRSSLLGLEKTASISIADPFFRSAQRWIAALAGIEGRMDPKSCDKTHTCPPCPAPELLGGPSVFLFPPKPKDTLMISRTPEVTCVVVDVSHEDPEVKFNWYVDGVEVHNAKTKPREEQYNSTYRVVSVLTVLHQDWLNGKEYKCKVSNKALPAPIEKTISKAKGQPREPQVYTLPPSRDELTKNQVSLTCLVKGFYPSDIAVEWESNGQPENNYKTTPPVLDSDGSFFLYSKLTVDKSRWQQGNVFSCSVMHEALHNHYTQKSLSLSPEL", "assay": "BTN isoform binding of yeast display antibodies (Octet isoform binding profile, binding affinity)", "settings": "Table 4; Yes/No; hIgG1-297A isotype", "description": "(§1) De novo antibody discovery for butyrophilin isoforms was executed on pre-immune yeast display libraries. The soluble proteins used in the yeast display selections were biotinylated recombinant proteins of HEK293-expressed Fc-chimeras BTN2A2, BTN3A1, BTN3A2, and BTN3A3 from R&D systems. All proteins were analyzed before use by Biacore binding against control antibody anti-BTN Monoclonal Antibody (eBioBT3.1 (20.1, BT3.1), SEC, SDS-PAGE, and endotoxin.\n(§2) Each biotinylated BTN isoform was subjected to pre-immune yeast display libraries for selections. The selections started with MACS (Magnetic Bead-based Cell Separation) cell separations for the first two rounds to enrich clones that bind to the targeted BTN isoforms, and applied fluorescence activated cell sorting (FACS) at later rounds to isolate clones that were with high affinity and isoform specificity. Due to the high sequence homology among all BTN isoforms, isoform-specific selection pressures were achieved by introducing ten-fold molar ratio of the non-biotinylated BTN isoforms to the biotinylated and selection-targeted BTN isoforms in the later rounds of the selections.\n(§3) The isolated clones were then sequenced to identify the unique antibodies and screened for isoform binding profiles by Octet. To ensure the isolated antibodies have broad-epitopic coverage, all the antibodies were subjected to binning against the benchmark antibodies: BTN20.1 (Biolegend, agonist) and BTN103.2 (Creative Biolabs, antagonist). Purified antibodies were submitted for functional assay screening, as described below.\n(§4) Given the sequence homology between BTN3A isoforms (>90%), this outcome is expected. Within all 105 antibodies from the BTN3A1 campaign and 125 antibodies from the BTN3A2 campaign, each antibody was characterized into one of the bins: Biolegend-bin, Creative-Biolabs-bin, Empty Set, or Overlapping.\n(§5) Using the protocols described in detail in Example 2B and Example 3A, anti-BTN3A antibodies were screened for a functional role in T cell activation and reactivation of latent HIV. Antibody screens were conducted using HIV latent CD4+ T cells (prepared as described in Example 1A). T cell activation was quantified by production of IFNγ, and reactivation of latent HIV was quantified by luciferase assay. […] Detailed information on binding profile with binding affinity (KD) (Table 4) and antibody isotype and sequence (Table 5) are provided for two representative antibodies from each of the three functional categories observed."}, "BTN3A2": {"target": "T2, BTN3A2 (Homo sapiens, UniProt P78410)", "T2 construct": "Fc (Fc-chimera); purchased R&D systems; host or cells: HEK293", "T2 sequence (P78410 with tags, fused parts or gaps limits assumed)": "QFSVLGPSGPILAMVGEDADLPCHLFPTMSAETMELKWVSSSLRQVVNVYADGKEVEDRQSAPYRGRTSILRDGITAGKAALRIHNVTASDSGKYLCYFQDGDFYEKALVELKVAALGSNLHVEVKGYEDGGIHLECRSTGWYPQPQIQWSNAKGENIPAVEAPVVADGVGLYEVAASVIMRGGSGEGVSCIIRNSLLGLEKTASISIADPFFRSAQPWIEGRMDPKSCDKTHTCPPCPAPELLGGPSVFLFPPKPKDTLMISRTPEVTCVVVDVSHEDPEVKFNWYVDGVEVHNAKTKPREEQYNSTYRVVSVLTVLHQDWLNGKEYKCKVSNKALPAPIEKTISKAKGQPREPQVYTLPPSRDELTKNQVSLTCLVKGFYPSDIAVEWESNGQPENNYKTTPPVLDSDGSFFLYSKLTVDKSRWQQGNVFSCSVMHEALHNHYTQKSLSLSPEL", "assay": "BTN isoform binding of yeast display antibodies (Octet isoform binding profile, binding affinity)", "settings": "Table 4; Yes/No; hIgG1-297A isotype", "description": "as §1, §2, §3, §4, §5"}, "BTN3A3": {"target": "T3, BTN3A3 (Homo sapiens, UniProt O00478)", "T3 construct": "Fc (Fc-chimera); purchased R&D systems; host or cells: HEK293", "T3 sequence (O00478 with tags, fused parts or gaps limits assumed)": "as the sequence (P78410 with tags, fused parts or gaps limits assumed) above, with K37R, N120D, V123I, Q149K, N152D, A153T, E174A, G184S, E187G counted along it", "assay": "BTN isoform binding of yeast display antibodies (Octet isoform binding profile, binding affinity)", "settings": "Table 4; Yes/No; hIgG1-297A isotype", "description": "as §1, §2, §3, §4, §5"}, "[1]": {"system": "HIV latent primary CD4+ T cells", "assay": "T cell activation by plate-coated anti-BTN3A antibody plus anti-CD3, IFNγ expression (V-PLEX)", "format": "cell-based, human", "settings": "production of IFNγ, with anti-CD3, Yes/No", "description": "(§6) Latent HIV-1 infected primary CD4+ T cells were generated following a protocol licensed from the laboratory of Jonathan Karn (Case Western Reserve University, Cleveland, Ohio). Briefly, naive CD4^+ T cells isolated from 2 healthy human donors were propagated for 6 days in growth medium supplemented with Dynabeads Human T-Activator CD3/CD28 (25 μl/10^6 cells) and Th17 polarizing cytokines: TGF-β1 (5 ng/ml), IL-4 (10 ng/ml), IFNγ (10 ng/ml), IL-1β (10 ng/ml), IL-6 (30 ng/ml), IL-23 (50 ng/ml), IL-8 (15 ng/ml), IL-10 (10 ng/ml). […]. Reactivation of HIV-1 proviruses from latently infected cells was performed by treatment with Dynabeads Human T-Activator CD3/CD28 (25 μl/10^6 cells) or PMA/Ionomycin.\nWe next addressed if treatment with anti-BTN3A antibodies reverses BTN3A-mediated blockade in T cell activation. To assess this, sterile 96-well flat bottom tissue culture plates (Corning) were coated with various concentrations of anti-CD3 and anti-BTN3 20.1 antibodies (10 μg/ml, 3 μg/ml, 1 μg/ml, and 0.3 μg/ml) in PBS for 16 h in a 4° C. refrigerator. As controls, plates were coated with various concentrations of anti-CD3 antibody and isotype control antibody (10 μg/ml, 3 μg/ml, 1 μg/ml, and 0.3 μg/ml), anti-CD3 antibody alone, or isotype control antibody alone. The next day, antibodies were aspirated using a multichannel pipette and HIV latent primary CD4+ T cells from two donors were added to the antibody coated plates in duplicates at 125,000 cells/well in 200 ul of primary cell media (RPMI with 10% FBS, 50 μg/ml Primocin™). At 72 h following treatment T cell activation was measured based on IFNγ expression using a V-PLEX proinflammatory panel 1 human assay (Meso Scale Discovery, Rockville, Md.) (FIG. 4).\nas §5"}, "[2]": {"system": "latent HIV in HIV latent primary CD4+ T cells", "assay": "Latent virus reactivation by plate-coated anti-BTN3A antibody plus anti-CD3, Nano-Glo Luciferase Assay", "format": "cell-based, HIV-1", "settings": "with anti-CD3, Yes/No", "description": "as §6\nTo assess if BTN3A modulation has impact on HIV latency reversal, sterile 96-well flat bottom tissue culture plates (Corning) were coated with various concentrations of anti-CD3 and anti-BTN3 20.1 antibodies (10 μg/ml, 3 μg/ml, 1 μg/ml, and 0.3 μg/ml) in PBS for 16h in a 4° C. refrigerator. As controls, plates were coated with various concentrations of anti-CD3 antibody and isotype control antibody (10 μg/ml, 3 μg/ml, 1 μg/ml, and 0.3 μg/ml), anti-CD3 antibody alone, or isotype control antibody alone. The next day, antibodies were aspirated using a multichannel pipette and HIV latent primary CD4+ T cells from two donors were added to the antibody coated plates in duplicates at 125,000 cells/well in 200 ul of primary cell media (RPMI with 10% FBS, 50 μg/ml Primocin™). At 24 h post treatment latent virus reactivation was measured using a Nano-Glo® Luciferase Assay (Promega) (FIG. 5).\nas §5"}},
  "note": "Where a chain is given by its changes, count along the chain named.",
  "data": [
    {"molecule": "B1", "values": [
      {"measurement": "BTN3A1 Binding", "setting": "BTN3A1", "value": "Yes"},
      {"measurement": "BTN3A2 Binding", "setting": "BTN3A2", "value": "Yes"},
      {"measurement": "BTN3A3 Binding", "setting": "BTN3A3", "value": "Yes"},
      {"measurement": "Antibody function T cell activation", "setting": "[1]", "value": "Yes"},
      {"measurement": "Antibody function HIV reactivation", "setting": "[2]", "value": "No"}
    ]},
    {"molecule": "B2", "values": [
      {"measurement": "BTN3A1 Binding", "setting": "BTN3A1", "value": "Yes"},
      {"measurement": "BTN3A2 Binding", "setting": "BTN3A2", "value": "Yes"},
      {"measurement": "BTN3A3 Binding", "setting": "BTN3A3", "value": "Yes"},
      {"measurement": "Antibody function T cell activation", "setting": "[1]", "value": "Yes"},
      {"measurement": "Antibody function HIV reactivation", "setting": "[2]", "value": "Yes"}
    ]},
    {"molecule": "B3", "values": [
      {"measurement": "BTN3A1 Binding", "setting": "BTN3A1", "value": "Yes"},
      {"measurement": "BTN3A2 Binding", "setting": "BTN3A2", "value": "No"},
      {"measurement": "BTN3A3 Binding", "setting": "BTN3A3", "value": "Yes"},
      {"measurement": "Antibody function T cell activation", "setting": "[1]", "value": "No"},
      {"measurement": "Antibody function HIV reactivation", "setting": "[2]", "value": "Yes"}
    ]},
    {"molecule": "B4", "values": [
      {"measurement": "BTN3A1 Binding", "setting": "BTN3A1", "value": "Yes"},
      {"measurement": "BTN3A2 Binding", "setting": "BTN3A2", "value": "No"},
      {"measurement": "BTN3A3 Binding", "setting": "BTN3A3", "value": "Yes"},
      {"measurement": "Antibody function T cell activation", "setting": "[1]", "value": "Yes"},
      {"measurement": "Antibody function HIV reactivation", "setting": "[2]", "value": "Yes"}
    ]}
  ]
}
